From publication PMC2785583 (The Journal of Biological Chemistry, 2009)

What was measured:
[1] = target: Protein FAF (F. magna adhesion factor), recombinant, amino acids 28-616 (Finegoldia magna); assay: SPR
SDS-PAGE = target: the molecule itself; assay: SDS-PAGE

B1: Recombinant human MIG/CXCL9 (monokine induced by gamma-interferon) (ligand, UniProt Q07325 23-125, looked up)
chain: TPVVRKGRCSCISTNQGTIHLQSLKDLKQFAPSPSCEKIEIIATLKNGVQTCLNPDSADVKELIKKWEKQVSQKKKQKNGKKHQKKKVLKVRKSQRSRQKKTT
[1]
  Kd: 4.9 nM
SDS-PAGE
  binding result: binds
